Experiment [1] has as its target angiotensin converting enzyme (ACE) (human) (UniProt P12821). The experiment in a line: indirect immunofluorescence flow cytometry, UT7 cells, BB9 at 20 µg/mL; grade = proportion of positive cells. For orientation: In flow cytometry, cells or beads pass a laser one at a time.
For experiment [2] the target is unchanged. The experiment can be described thus: indirect immunofluorescence flow cytometry, HL60 cells, BB9 at 20 µg/mL; grade = proportion of positive cells.
The target is the same in experiment [3]. The experiment in a line: indirect immunofluorescence flow cytometry, K562 cells, BB9 at 20 µg/mL; grade = proportion of positive cells.
Experiment [4] shares this target. The experiment in a line: indirect immunofluorescence flow cytometry, KG-1 cells, BB9 at 20 µg/mL; grade = proportion of positive cells.
The target is the same in experiment [5]. The experiment in a line: indirect immunofluorescence flow cytometry, MG63 cells, BB9 at 20 µg/mL; grade = proportion of positive cells.
For experiment [6] the target is unchanged. The experiment in a line: indirect immunofluorescence flow cytometry, RC2A cells, BB9 at 20 µg/mL; grade = proportion of positive cells.
Experiment [7] shares this target. The experiment can be described thus: indirect immunofluorescence flow cytometry, U937 cells, BB9 at 20 µg/mL; grade = proportion of positive cells.
The target is the same in experiment [8]. The experiment in a line: indirect immunofluorescence flow cytometry, MCF-7 cells, BB9 at 20 µg/mL; grade = proportion of positive cells.
For experiment [9] the target is unchanged. The experiment can be described thus: indirect immunofluorescence flow cytometry, HEL-DR cells, BB9 at 20 µg/mL; grade = proportion of positive cells.
The target is the same in experiment [10]. The experiment can be described thus: indirect immunofluorescence flow cytometry, Hi MEG cells, BB9 at 20 µg/mL; grade = proportion of positive cells.
Experiment [11] has the same target. The experiment in a line: indirect immunofluorescence flow cytometry, MEG-01 cells, BB9 at 20 µg/mL; grade = proportion of positive cells.
Experiment [12] has the same target. The experiment in a line: indirect immunofluorescence flow cytometry, Nalm-6 cells, BB9 at 20 µg/mL; grade = proportion of positive cells.
Experiment [13] has the same target. The experiment in a line: indirect immunofluorescence flow cytometry, dermal fibroblasts, BB9 at 20 µg/mL; grade = proportion of positive cells.

Chain of UniProt P12821 (P12821 30-1306): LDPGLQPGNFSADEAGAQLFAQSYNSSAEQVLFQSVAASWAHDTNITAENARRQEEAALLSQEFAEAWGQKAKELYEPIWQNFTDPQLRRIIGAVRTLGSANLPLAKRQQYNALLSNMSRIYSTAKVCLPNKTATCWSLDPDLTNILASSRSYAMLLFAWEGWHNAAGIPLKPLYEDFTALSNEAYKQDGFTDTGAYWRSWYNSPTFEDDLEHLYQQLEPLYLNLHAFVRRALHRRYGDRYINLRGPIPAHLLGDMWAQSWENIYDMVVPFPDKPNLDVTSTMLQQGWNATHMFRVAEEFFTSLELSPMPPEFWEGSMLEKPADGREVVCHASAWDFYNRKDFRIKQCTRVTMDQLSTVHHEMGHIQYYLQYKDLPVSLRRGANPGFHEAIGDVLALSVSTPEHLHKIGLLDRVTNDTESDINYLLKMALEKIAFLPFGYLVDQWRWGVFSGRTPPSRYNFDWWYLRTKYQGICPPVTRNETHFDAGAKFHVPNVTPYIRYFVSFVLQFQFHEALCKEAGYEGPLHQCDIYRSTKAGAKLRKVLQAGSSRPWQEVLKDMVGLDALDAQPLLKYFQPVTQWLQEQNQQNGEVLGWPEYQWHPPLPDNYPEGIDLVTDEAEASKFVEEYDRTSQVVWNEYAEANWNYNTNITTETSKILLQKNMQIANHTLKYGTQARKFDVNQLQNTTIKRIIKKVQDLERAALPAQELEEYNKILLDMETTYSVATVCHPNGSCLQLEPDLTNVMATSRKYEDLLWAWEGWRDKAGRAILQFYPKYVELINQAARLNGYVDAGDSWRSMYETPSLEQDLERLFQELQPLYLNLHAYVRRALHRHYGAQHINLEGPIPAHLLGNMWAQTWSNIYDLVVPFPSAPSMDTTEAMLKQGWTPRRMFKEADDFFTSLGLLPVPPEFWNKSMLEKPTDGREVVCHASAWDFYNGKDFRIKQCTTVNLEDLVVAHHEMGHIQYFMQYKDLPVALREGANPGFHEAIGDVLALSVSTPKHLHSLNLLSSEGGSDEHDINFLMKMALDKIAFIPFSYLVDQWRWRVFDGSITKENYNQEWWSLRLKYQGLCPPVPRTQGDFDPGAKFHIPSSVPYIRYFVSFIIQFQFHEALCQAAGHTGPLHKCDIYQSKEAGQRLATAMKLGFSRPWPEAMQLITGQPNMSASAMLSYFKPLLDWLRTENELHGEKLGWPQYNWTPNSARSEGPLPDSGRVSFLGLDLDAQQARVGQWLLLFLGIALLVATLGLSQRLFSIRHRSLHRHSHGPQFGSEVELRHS

On to monoclonal antibody BB9, for which the proportion of BB9 positive cells in [1] fell in the range of 35 to 80%; in [2] it was 35 to 80%; in [3], 35 to 80%; in [4] it was 5 to 35%; in [5], 35 to 80%; in [6], 5 to 35%. For the same substance, the proportion of BB9 positive cells was 5 to 35% in experiment [7]; 5 to 35% in experiment [8]; 35 to 80% in experiment [9]; 5 to 35% in [10]; 35 to 80% in [11]; 5 to 35% in experiment [12]. The proportion of BB9 positive cells in experiment [13] fell in the range of 80 to 100%.
